Measurements: patent US20250327097A1, “ORGANISMS PRODUCING LESS CROTONIC ACID” (Global Bioenergies, priority 2021, published 2025)
Substitutions are numbered along the chain they refer to. Names and notes keep the numbering of the source.

B1: N285M-N287T-S322T-N388M-K394R-C430N-L432F-L434W-S436N-dG462-Y469N (protein)
chain: MFLKSLREQINLLKRQGDLRIINRPVDSYLEAAAIIRRSTETKAPVPLMTNIKGYPGCSIVGGLAALSSNPEYPLSRVAMSLGLSTTASAQSIVQYLIDGLKKTPYLPVEIDSNSAPCKQNILRGEDASLAHFPIPQVHQHDGNRYVNTWGVFIVESPDGQWCNWSIQRVQYLNDRQMIALVFPSQHISDIWEEWVKIGKPMPYALVQGCEPIVPYIAGLPLLERNVNEAEYIGALYGKGIEVVKCETHDLRVPASSEVVIEGYFAITREGVEGPFGEFAGYIPMETSLQPILSITAISWQDDPIWPVVAEGKPVDEYHTCTGIGDAAAIQNVLLTANLPVSFVWVPLYSACHLMIVSINRHWRQTHPDLTSEQLTKKVGDVIHQTRMSIKLPRIVVLDDDVDPADTESLLWALATRIHPERKRYFYESNIFPWLNCYSEEERHNRKGKRVIIDALLPENHGAISSFDNAYPDDIKQRVLMHWETDFSHD
B2: N285M-N287T-S322T-N388M-K394R-C430N-L432F-L434W-S436N-dG462-A470S (protein)
chain: B1 chain with N469Y, A470S
B3: N285M-N287T-S322T-N388M-K394R-C430N-L432F-L434W-S436N-dA463-A470S (protein)
chain: B1 chain with N469Y, A470S
B4: N285M-N287T-S322T-N388M-K394R-C430N-L432F-L434W-S436N-dA463-S465I (protein)
chain: B1 chain with S465I, N469Y
B5: N285M-N287T-S322T-N388M-K394R-C430N-L432F-L434W-S436N-dA463-S465V (protein)
chain: B1 chain with S465V, N469Y
B6: I283Q-P284E-N287Q-S322T-N388M-K394R-C430N-L432F-L434W-S436N-dA463 (protein)
chain: B1 chain with I283Q, P284E, M285N, T287Q, N469Y
B7: I283C-P284E-N287Q-S322T-N388M-K394R-C430N-L432F-L434W-S436N-dA463 (protein)
chain: B1 chain with I283C, P284E, M285N, T287Q, N469Y
B8: I283L-P284E-N287Q-S322T-N388M-K394R-C430N-L432F-L434W-S436N-dA463 (protein)
chain: B1 chain with I283L, P284E, M285N, T287Q, N469Y
B9: S185T-N388M-C430S-L432F-L434W-S436N (protein)
chain: B1 chain with S185T, M285N, T287N, T322S, R394K, N430S, N469Y
B10: P284D-N287Q-S322T-N388M-K394R-C430N-L432F-L434W-S436N-dA463 (protein)
chain: B1 chain with P284D, M285N, T287Q, N469Y
B11: P284E-N287Q-L289H-S322T-N388M-K394R-C430N-L432F-L434W-S436N-dA463 (protein)
chain: B1 chain with P284E, M285N, T287Q, L289H, N469Y
B12: P284E-N287Q-L289R-S322T-N388M-K394R-C430N-L432F-L434W-S436N-dA463 (protein)
chain: B1 chain with P284E, M285N, T287Q, L289R, N469Y
B13: P284E-N287Q-S322T-N388M-K394R-R422H-C430N-L432F-L434W-S436N-dA463 (protein)
chain: B1 chain with P284E, M285N, T287Q, R422H, N469Y
B14: P284E-N287Q-S322T-N388M-K394R-C430N-L432F-L434W-S436N-dA463-A470T (protein)
chain: B1 chain with P284E, M285N, T287Q, N469Y, A470T
B15: P284E-N287Q-S322T-N388M-K394R-C430N-L432F-L434W-S436N-G462R-dA463 (protein)
chain: B1 chain with P284E, M285N, T287Q, G462R, N469Y
B16: P284E-N287Q-S322T-N388M-K394R-C430N-L432F-L434W-S436N-dA463-S465A (protein)
chain: B1 chain with P284E, M285N, T287Q, S465A, N469Y
B17: P284E-N287Q-S322T-N388M-K394R-C430N-L432F-L434W-S436N-dA463-Y469T (protein)
chain: B1 chain with P284E, M285N, T287Q, N469T
B18: P284E-N287Q-S322T-N388M-K394R-C430N-L432F-L434W-S436N-dA463-Y469E (protein)
chain: B1 chain with P284E, M285N, T287Q, N469E
B19: P284E-N287Q-S322T-N388M-K394R-C430N-L432F-L434W-S436N-dA463-A470S (protein)
chain: B1 chain with P284E, M285N, T287Q, N469Y, A470S
B20: N388M-K394R-C430A-L432F-L434W-S436N (protein)
chain: B1 chain with M285N, T287N, T322S, N430A, N469Y
B21: I283T-N285P-E286D-N287T-Q290E-S322T-N388M-K394R-C430A-L432F-L434W-S436N-G462P-A463P (protein)
chain: B1 chain with I283T, M285P, E286D, Q290E, N430A, G462P, A463P, N469Y
B22: I283T-N285P-N287T-L289Y-Q290E-S322T-N388M-K394R-C430A-L432F-L434W-S436N-G462P-A463P (protein)
chain: B1 chain with I283T, M285P, L289Y, Q290E, N430A, G462P, A463P, N469Y
B23: I283T-N285P-N287T-L289A-Q290E-S322T-N388M-K394R-C430A-L432F-L434W-S436N-G462P-A463P (protein)
chain: B1 chain with I283T, M285P, L289A, Q290E, N430A, G462P, A463P, N469Y
B24: I283T-N285P-N287T-Q290E-S322T-Q365M-N388M-K394R-C430A-L432F-L434W-S436N-G462P-A463P (protein)
chain: B1 chain with I283T, M285P, Q290E, Q365M, N430A, G462P, A463P, N469Y
B25: I283T-N285P-N287T-Q290E-S322T-Q365S-N388M-K394R-C430A-L432F-L434W-S436N-G462P-A463P (protein)
chain: B1 chain with I283T, M285P, Q290E, Q365S, N430A, G462P, A463P, N469Y
B26: I283L-N285P-N287T-Q290E-S322T-N388M-K394R-C430A-L432F-L434W-S436N (protein)
chain: B1 chain with I283L, M285P, Q290E, N430A, N469Y
B27: I283H-P284D-N285M-N287T-S322T-N388M-K394R-C430A-L432F-L434W-S436N-G462P-A463P (protein)
chain: B1 chain with I283H, P284D, N430A, G462P, A463P, N469Y
B28: I283Q-P284D-N285M-N287T-S322T-N388M-K394R-C430A-L432F-L434W-S436N-G462P-A463P (protein)
chain: B1 chain with I283Q, P284D, N430A, G462P, A463P, N469Y
B29: I283T-P284D-N285H-N287T-S322T-N388M-K394R-C430A-L432F-L434W-S436N-G462P-A463P (protein)
chain: B1 chain with I283T, P284D, M285H, N430A, G462P, A463P, N469Y
B30: I283T-P284D-N285V-N287T-S322T-N388M-K394R-C430A-L432F-L434W-S436N-G462P-A463P (protein)
chain: B1 chain with I283T, P284D, M285V, N430A, G462P, A463P, N469Y
B31: N388M-K394R-C430N-L432F-L434W-S436N-H444L (protein)
chain: B1 chain with M285N, T287N, T322S, H444L, N469Y
B32: I283T-P284D-N285L-N287T-S322T-N388M-K394R-C430A-L432F-L434W-S436N-G462P-A463P (protein)
chain: B1 chain with I283T, P284D, M285L, N430A, G462P, A463P, N469Y
B33: I283T-P284D-N285T-N287T-S322T-N388M-K394R-C430A-L432F-L434W-S436N-G462P-A463P (protein)
chain: B1 chain with I283T, P284D, M285T, N430A, G462P, A463P, N469Y
B34: I283T-P284D-N285S-N287T-S322T-N388M-K394R-C430A-L432F-L434W-S436N-G462P-A463P (protein)
chain: B1 chain with I283T, P284D, M285S, N430A, G462P, A463P, N469Y
B35: I283T-P284D-N285M-E286N-N287T-S322T-N388M-K394R-C430A-L432F-L434W-S436N-G462P-A463P (protein)
chain: B1 chain with I283T, P284D, E286N, N430A, G462P, A463P, N469Y

Test system: 3-methylcrotonic acid
Format: biochemical, Yersinia frederiksenii
Design: key: “+” representing a low increase in activity; “++++” representing a high increase in activity

| Molecule | Activity relative to WT |
| --- | --- |
| B1 | ++++ |
| B2 | ++++ |
| B3 | ++++ |
| B4 | ++++ |
| B5 | ++++ |
| B6 | ++++ |
| B7 | ++++ |
| B8 | ++++ |
| B9 | + |
| B10 | ++++ |
| B11 | ++++ |
| B12 | ++++ |
| B13 | ++++ |
| B14 | ++++ |
| B15 | ++++ |
| B16 | ++++ |
| B17 | ++++ |
| B18 | ++++ |

| Molecule | Activity relative to WT |
| --- | --- |
| B19 | ++++ |
| B20 | + |
| B21 | ++++ |
| B22 | ++++ |
| B23 | ++++ |
| B24 | ++++ |
| B25 | ++++ |
| B26 | ++++ |
| B27 | ++++ |
| B28 | ++++ |
| B29 | ++++ |
| B30 | ++++ |
| B31 | + |
| B32 | ++++ |
| B33 | ++++ |
| B34 | ++++ |
| B35 | ++++ |
